Measurements published in patent US20040043468A1.

Target: eIF4E
Assay: cell-based or functional assay

- Photinus luciferase activity from the monocistronic PM construct in B104 cells, as a percentage of the activity with a control expression plasmid: 45 % of control
- Photinus luciferase activity from the β-globin 5′ UTR monocistronic construct in B104 cells, as a percentage of the activity with a control expression plasmid: 43 % of control
Substance: dominant negative form of the eIF4E binding protein 4E-BP1 (from UniProt Q13541 1-118)
